Reference: the supplement of paper PMC10567573

B1: ISL2 (parent)
chain: HYPFLGAMGDHSKKKPGTAMCVGC
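Note: lentivirally expressed fusions sorted by FACS into six bins by GFP to DsRed ratio, PSI derived from sequencing read proportions per bin multiplied by bin number.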

Variants of: B1
Assay: protein stability index of a GFP-peptide fusion (GPS, HEK-293T) (PSI 1-6); higher = more stable
Conditions: c terminus: a fixed tail appended
For HYPFLGAMGDHSKKKRGTAMCVGC [P16R], the protein stability index was 1.99.
With HYPFLGAMGDHSKKKVGTAMCVGC [P16V] the protein stability index was 2.06.
HYPFLGAMGDHSKKKMGTAMCVGC [P16M] gave a protein stability index of 2.45.
In the case of HYPFLGAMGDHSKKKFGTAMCVGC [P16F], the protein stability index is reported as 1.62.
HYPFLGAMGDHSKKKEGTAMCVGC [P16E] gave a protein stability index of 3.07.
In the case of HYPFLGAMGDHSKKKSGTAMCVGC [P16S], the protein stability index is reported as 2.69.
HYPFLGAMGDHSKKKGGTAMCVGC [P16G] gave a protein stability index of 2.19.
For HYPFLGAMGDHSKKKWGTAMCVGC [P16W], the protein stability index was 2.41.
Work on HYPFLGAMGDHSKKKYGTAMCVGC [P16Y] yielded a protein stability index of 2.42.
For HYPFLGAMGDHSKKKHGTAMCVGC [P16H], the protein stability index was 2.61.
HYPFLGAMGDHSKKKNGTAMCVGC [P16N] showed a protein stability index of 2.7.
With HYPFLGAMGDHSKKKIGTAMCVGC [P16I] the protein stability index was 1.67.
HYPFLGAMGDHSKKKDGTAMCVGC [P16D] gave a protein stability index of 3.02.
HYPFLGAMGDHSKKKLGTAMCVGC [P16L] showed a protein stability index of 2.17.
In the case of HYPFLGAMGDHSKKKKGTAMCVGC [P16K], the protein stability index is reported as 2.24.
Work on HYPFLGAMGDHSKKKAGTAMCVGC [P16A] yielded a protein stability index of 2.52.
HYPFLGAMGDHSKKKQGTAMCVGC [P16Q] showed a protein stability index of 2.44.
In the case of HYPFLGAMGDHSKKKCGTAMCVGC [P16C], the protein stability index is reported as 3.12.
HYPFLGAMGDHSKKKTGTAMCVGC [P16T] gave a protein stability index of 2.37.
With HYPFLGAMGDHSKKKPGTAMCAGC [V22A] the protein stability index was 3.04.
Variant HYPFLGAMGDHSKKKPGTAMCFGC [V22F] has a protein stability index of 2.16.
With HYPFLGAMGDHSKKKPGTAMCQGC [V22Q] the protein stability index was 3.44.
HYPFLGAMGDHSKKKPGTAMCPGC [V22P] gave a protein stability index of 3.05.
Variant HYPFLGAMGDHSKKKPGTAMCTGC [V22T] has a protein stability index of 3.42.
For HYPFLGAMGDHSKKKPGTAMCMGC [V22M], the protein stability index was 2.52.
For HYPFLGAMGDHSKKKPGTAMCCGC [V22C], the protein stability index was 3.39.
Work on HYPFLGAMGDHSKKKPGTAMCDGC [V22D] yielded a protein stability index of 3.43.
HYPFLGAMGDHSKKKPGTAMCNGC [V22N] gave a protein stability index of 3.61.
HYPFLGAMGDHSKKKPGTAMCRGC [V22R] gave a protein stability index of 3.57.
Variant HYPFLGAMGDHSKKKPGTAMCHGC [V22H] has a protein stability index of 3.01.
With HYPFLGAMGDHSKKKPGTAMCIGC [V22I] the protein stability index was 2.08.
For HYPFLGAMGDHSKKKPGTAMCKGC [V22K], the protein stability index was 3.18.
In the case of HYPFLGAMGDHSKKKPGTAMCLGC [V22L], the protein stability index is reported as 2.42.
Work on HYPFLGAMGDHSKKKPGTAMCWGC [V22W] yielded a protein stability index of 1.35.
Variant HYPFLGAMGDHSKKKPGTAMCSGC [V22S] has a protein stability index of 3.6.
Work on HYPFLGAMGDHSKKKPGTAMCGGC [V22G] yielded a protein stability index of 3.59.
In the case of HYPFLGAMGDHSKKKPGTAMCEGC [V22E], the protein stability index is reported as 3.46.
HYPFLGAMGDHSKKKPGTAMCYGC [V22Y] gave a protein stability index of 2.34.
HYPFLGAMGDHSKHKPGTAMCVGC [K14H] showed a protein stability index of 3.07.
With HYPFLGAMGDHSKMKPGTAMCVGC [K14M] the protein stability index was 2.91.
With HYPFLGAMGDHSKVKPGTAMCVGC [K14V] the protein stability index was 2.73.
For HYPFLGAMGDHSKGKPGTAMCVGC [K14G], the protein stability index was 2.34.
For HYPFLGAMGDHSKWKPGTAMCVGC [K14W], the protein stability index was 1.51.
Variant HYPFLGAMGDHSKLKPGTAMCVGC [K14L] has a protein stability index of 2.44.
In the case of HYPFLGAMGDHSKQKPGTAMCVGC [K14Q], the protein stability index is reported as 2.45.
HYPFLGAMGDHSKTKPGTAMCVGC [K14T] gave a protein stability index of 2.58.
Variant HYPFLGAMGDHSKSKPGTAMCVGC [K14S] has a protein stability index of 2.51.
In the case of HYPFLGAMGDHSKCKPGTAMCVGC [K14C], the protein stability index is reported as 4.25.
HYPFLGAMGDHSKPKPGTAMCVGC [K14P] showed a protein stability index of 2.98.
Variant HYPFLGAMGDHSKYKPGTAMCVGC [K14Y] has a protein stability index of 1.74.
HYPFLGAMGDHSKEKPGTAMCVGC [K14E] gave a protein stability index of 3.44.
HYPFLGAMGDHSKNKPGTAMCVGC [K14N] gave a protein stability index of 2.8.
Variant HYPFLGAMGDHSKFKPGTAMCVGC [K14F] has a protein stability index of 1.98.
Variant HYPFLGAMGDHSKAKPGTAMCVGC [K14A] has a protein stability index of 2.29.
Work on HYPFLGAMGDHSKRKPGTAMCVGC [K14R] yielded a protein stability index of 2.67.
HYPFLGAMGDHSKDKPGTAMCVGC [K14D] gave a protein stability index of 3.
HYPFLGAMGDHSKIKPGTAMCVGC [K14I] gave a protein stability index of 2.78.
In the case of HYPFLGAMGDHSKKKPGTAMCVKC [G23K], the protein stability index is reported as 3.18.
Work on HYPFLGAMGDHSKKKPGTAMCVMC [G23M] yielded a protein stability index of 1.58.
HYPFLGAMGDHSKKKPGTAMCVHC [G23H] showed a protein stability index of 2.52.
HYPFLGAMGDHSKKKPGTAMCVAC [G23A] showed a protein stability index of 2.42.
Variant HYPFLGAMGDHSKKKPGTAMCVRC [G23R] has a protein stability index of 2.43.
Variant HYPFLGAMGDHSKKKPGTAMCVNC [G23N] has a protein stability index of 2.72.
Work on HYPFLGAMGDHSKKKPGTAMCVDC [G23D] yielded a protein stability index of 3.32.
HYPFLGAMGDHSKKKPGTAMCVLC [G23L] showed a protein stability index of 1.8.
Variant HYPFLGAMGDHSKKKPGTAMCVQC [G23Q] has a protein stability index of 2.57.
With HYPFLGAMGDHSKKKPGTAMCVIC [G23I] the protein stability index was 2.16.
With HYPFLGAMGDHSKKKPGTAMCVPC [G23P] the protein stability index was 3.31.
HYPFLGAMGDHSKKKPGTAMCVEC [G23E] showed a protein stability index of 3.25.
HYPFLGAMGDHSKKKPGTAMCVCC [G23C] showed a protein stability index of 3.18.
For HYPFLGAMGDHSKKKPGTAMCVFC [G23F], the protein stability index was 2.44.
Work on HYPFLGAMGDHSKKFPGTAMCVGC [K15F] yielded a protein stability index of 2.07.
With HYPFLGAMGDHSKKLPGTAMCVGC [K15L] the protein stability index was 2.42.
For HYPFLGAMGDHSKKHPGTAMCVGC [K15H], the protein stability index was 2.47.
HYPFLGAMGDHSKKEPGTAMCVGC [K15E] showed a protein stability index of 2.77.
With HYPFLGAMGDHSKKVPGTAMCVGC [K15V] the protein stability index was 2.13.
Work on HYPFLGAMGDHSKKTPGTAMCVGC [K15T] yielded a protein stability index of 2.75.
Work on HYPFLGAMGDHSKKCPGTAMCVGC [K15C] yielded a protein stability index of 3.46.
HYPFLGAMGDHSKKGPGTAMCVGC [K15G] gave a protein stability index of 2.37.
For HYPFLGAMGDHSKKAPGTAMCVGC [K15A], the protein stability index was 2.27.
Variant HYPFLGAMGDHSKKNPGTAMCVGC [K15N] has a protein stability index of 2.61.
Variant HYPFLGAMGDHSKKDPGTAMCVGC [K15D] has a protein stability index of 2.75.
For HYPFLGAMGDHSKKPPGTAMCVGC [K15P], the protein stability index was 2.4.
HYPFLGAMGDHSKKWPGTAMCVGC [K15W] gave a protein stability index of 1.67.
HYPFLGAMGDHSKKIPGTAMCVGC [K15I] showed a protein stability index of 2.05.
HYPFLGAMGDHSKKSPGTAMCVGC [K15S] showed a protein stability index of 2.52.
Variant HYPFLGAMGDHSKKYPGTAMCVGC [K15Y] has a protein stability index of 2.02.
With HYPFLGAMGDHSKKMPGTAMCVGC [K15M] the protein stability index was 2.2.
HYPFLGAMGDHSKKQPGTAMCVGC [K15Q] showed a protein stability index of 2.52.
HYPFLGAMGDHSKKKPTTAMCVGC [G17T] gave a protein stability index of 2.8.
For HYPFLGAMGDHSKKKPWTAMCVGC [G17W], the protein stability index was 1.63.
Variant HYPFLGAMGDHSKKKPKTAMCVGC [G17K] has a protein stability index of 3.11.
With HYPFLGAMGDHSKKKPITAMCVGC [G17I] the protein stability index was 1.98.
HYPFLGAMGDHSKKKPRTAMCVGC [G17R] gave a protein stability index of 2.23.
